The results in this text go back to paper PMC7430664, “Yeast pentatricopeptide protein Dmr1 (Ccm1) binds a repetitive AU-rich motif in the small subunit mitochondrial ribosomal RNA”.

Series [1] deals with T1, Dmr1p (Ccm1p), tag removed (Saccharomyces cerevisiae, UniProt P48237 27-864).
T1 sequence: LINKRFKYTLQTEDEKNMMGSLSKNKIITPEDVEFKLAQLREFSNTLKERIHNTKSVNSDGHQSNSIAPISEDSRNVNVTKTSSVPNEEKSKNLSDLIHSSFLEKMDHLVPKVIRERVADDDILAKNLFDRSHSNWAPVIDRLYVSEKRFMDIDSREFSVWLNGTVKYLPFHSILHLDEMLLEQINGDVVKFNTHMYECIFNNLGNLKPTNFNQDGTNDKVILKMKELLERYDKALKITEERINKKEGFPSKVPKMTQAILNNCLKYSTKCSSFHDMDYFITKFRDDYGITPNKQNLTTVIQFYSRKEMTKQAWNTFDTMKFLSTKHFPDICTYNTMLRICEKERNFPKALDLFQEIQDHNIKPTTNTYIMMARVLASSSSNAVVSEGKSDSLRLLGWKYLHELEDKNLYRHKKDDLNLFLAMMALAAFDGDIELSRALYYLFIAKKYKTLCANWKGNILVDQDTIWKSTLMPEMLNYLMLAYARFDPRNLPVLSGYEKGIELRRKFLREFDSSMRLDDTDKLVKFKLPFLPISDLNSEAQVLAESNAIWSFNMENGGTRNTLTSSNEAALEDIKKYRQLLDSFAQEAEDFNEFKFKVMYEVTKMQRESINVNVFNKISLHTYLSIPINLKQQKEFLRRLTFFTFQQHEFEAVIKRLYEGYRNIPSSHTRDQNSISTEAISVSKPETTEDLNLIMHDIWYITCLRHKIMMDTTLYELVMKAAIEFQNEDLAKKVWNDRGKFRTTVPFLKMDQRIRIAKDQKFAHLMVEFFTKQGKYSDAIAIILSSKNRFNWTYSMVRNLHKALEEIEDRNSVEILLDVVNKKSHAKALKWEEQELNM
Put plainly: EMSA; 0.2 ug tRNA; EMSA as in Puchta et al. 2010 (buffer not restated), 15 uL, up to 0.8 ug Dmr1p, BSA to constant protein, 0.2 ug tRNA; PNPase protection: 20 mM Tris-HCl pH 8.0. As to conditions: protein: recombinant; tags: none after TEV cleavage (from Dmr1-MBP-His6); label: 32P-UTP. (In EMSA bound probe runs differently from free probe, usually more slowly.)

Series [2] has as its target T1, Dmr1p (Ccm1p), tag removed. Put plainly: EMSA; 0.2 ug tRNA; strong; EMSA as in Puchta et al. 2010 (buffer not restated), 15 uL, up to 0.8 ug Dmr1p, BSA to constant protein, 0.2 ug tRNA; PNPase protection: 20 mM Tris-HCl pH 8.0. As to conditions: protein: recombinant; tags: none after TEV cleavage (from Dmr1-MBP-His6); label: 32P-UTP.
For series [3], the target named is T2, Dmr1-His6 (Saccharomyces cerevisiae, UniProt P48237 27-864).
T2 sequence: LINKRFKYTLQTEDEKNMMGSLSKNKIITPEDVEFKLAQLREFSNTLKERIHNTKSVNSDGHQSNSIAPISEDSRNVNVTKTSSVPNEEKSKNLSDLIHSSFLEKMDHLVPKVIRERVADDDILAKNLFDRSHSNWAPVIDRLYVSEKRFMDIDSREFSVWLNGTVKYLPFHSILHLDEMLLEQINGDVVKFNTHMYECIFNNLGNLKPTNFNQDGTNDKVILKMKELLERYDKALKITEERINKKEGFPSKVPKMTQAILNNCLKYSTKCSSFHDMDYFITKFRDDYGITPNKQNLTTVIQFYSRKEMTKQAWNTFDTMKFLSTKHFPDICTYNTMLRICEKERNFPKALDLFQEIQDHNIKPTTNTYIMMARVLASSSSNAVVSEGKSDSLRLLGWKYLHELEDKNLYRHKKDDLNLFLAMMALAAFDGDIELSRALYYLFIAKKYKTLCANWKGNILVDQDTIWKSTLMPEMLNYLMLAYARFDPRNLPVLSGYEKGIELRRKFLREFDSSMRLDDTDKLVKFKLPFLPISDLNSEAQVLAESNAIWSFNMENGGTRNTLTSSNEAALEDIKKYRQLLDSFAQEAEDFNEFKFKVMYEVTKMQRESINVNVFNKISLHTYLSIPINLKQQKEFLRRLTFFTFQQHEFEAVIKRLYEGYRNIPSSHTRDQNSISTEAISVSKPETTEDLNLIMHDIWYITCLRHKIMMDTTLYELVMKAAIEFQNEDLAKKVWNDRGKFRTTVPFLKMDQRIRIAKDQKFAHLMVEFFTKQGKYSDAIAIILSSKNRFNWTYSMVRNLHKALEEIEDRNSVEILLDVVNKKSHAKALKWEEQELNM
Put plainly: nuclease protection; PNPase, 2 mM MgCl2; complete protection, from 0.1 ug protein; EMSA as in Puchta et al. 2010 (buffer not restated), 15 uL, up to 0.8 ug Dmr1p, BSA to constant protein, 0.2 ug tRNA; PNPase protection: 20 mM Tris-HCl pH 8.0. As to conditions: protein: recombinant; tags: His6 (pET28a); label: 32P-UTP.

The target in series [4] is T2, Dmr1-His6. Put plainly: footprinting; Dis3p 3'-5' exoribonuclease, 2 mM MgCl2; stop 3-5 nt downstream of (AUA)4AU; EMSA as in Puchta et al. 2010 (buffer not restated), 15 uL, up to 0.8 ug Dmr1p, BSA to constant protein, 0.2 ug tRNA; PNPase protection: 20 mM Tris-HCl pH 8.0. As to conditions: protein: recombinant; tags: His6 (pET28a); label: 32P-UTP.
In series [5] the target is T2, Dmr1-His6. Put plainly: nuclease protection; Terminator 5'-3' exonuclease, 2 mM MgCl2; partial; text calls it the 24 nt fragment, legend 15_14; EMSA as in Puchta et al. 2010 (buffer not restated), 15 uL, up to 0.8 ug Dmr1p, BSA to constant protein, 0.2 ug tRNA; PNPase protection: 20 mM Tris-HCl pH 8.0. As to conditions: protein: recombinant; tags: His6 (pET28a); label: 32P-UTP.

Series [6] concerns the target T2, Dmr1-His6. Put plainly: nuclease protection; PNPase, 2 mM MgCl2; not protected; EMSA as in Puchta et al. 2010 (buffer not restated), 15 uL, up to 0.8 ug Dmr1p, BSA to constant protein, 0.2 ug tRNA; PNPase protection: 20 mM Tris-HCl pH 8.0. As to conditions: protein: recombinant; tags: His6 (pET28a); label: 32P-UTP.

GGUAUAUAUAUAAUAU (ssRNA) [N_14]: the binding result in series [1] was “no binding”.

On to GGUUAUAAUAAUAAUAAUAAUAAUAU (ssRNA) [20_24], for which the binding result in series [2] and in series [3] was “binds” each time.

Consider GGAAAGAUGAAAUAAUAAUAAUAAUUAUAAGACUAAU (ssRNA) [15_35], for which the binding result in series [4] was “binds”.

Consider GGAUAAUAAUAAUAAU (ssRNA, 5' monophosphate (polyphosphatase treated)) [15_14 5'-monophosphate], for which the binding result in series [5] is “binds”.

With GGAAAAGGAUAUAUAUAUAAUAUAUA (ssRNA) [N_24], the binding result in series [6] and in series [1] was “no binding” in each case.

Turning to GGAUAAUAAUAAUAAU (ssRNA) [15_14], the binding result in series [1] was “binds”.

On to GGAAAUAAUAAUAAUAAUUAUAAGAC (ssRNA) [15_24], for which, in series [1], the binding result was “binds”.
